Laboratory results as given in the nanobody polyreactivity screen of Harvey et al. (2022).

Test: yeast display, Sf9 membrane polyspecificity reagent, FACS + sequencing; frameworks hold sequencing errors
Method in brief: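 Galactose-induced (36–48 hours) yeast carrying a synthetic nanobody display library were exposed to 10% biotinylated, detergent-solubilized Sf9 membrane reagent at 4 °C for 1 hour. FACS followed streptavidin microbead enrichment, using low and high (top ~1%) gates for expression (anti-HA) and reagent binding (streptavidin). Colony PCR, MiSeq 2 × 250 sequencing and CDR-length filtering followed. Labels for polyreactivity reflect the gate of origin.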

| Sequence | polyreactivity (PSR sort gate) |
| --- | --- |
| QVQLVESGGGLVQAGGSLRLSCAASGYTFVYYAMGLYREAPGKERELVAAITSGGRTNYADSVKGRFTISRDNAKNTVYLQMNSLKPEDTAVYYCNVDGYYLFVRGYEYWGQGTQVTVSS | low polyreactivity |
| QVQLVESGGGLVQAGGSLRLSCAASGYTFWRYAMGWYRQAPGKERELVAAISQSGGRTYYADSVKGRFTISRDNAKNTVYLQMNSLKPEDTAVYYCATSSTQGDDYWGQGTQVTVSS | high polyreactivity |
| QVQLVESGGGLVQAGGSLRLSCAASGYTFYANAMGWYRQAPGKEREFVASSTWSGGSTYYADSVKGRFTISRDNAKNTVYFQMNSLKPEDTAVYYCAADSWFKYDYWGQGTQVTVSS | low polyreactivity |
| QVQLVESGGGLVQAGGSLRLSCAASGYTFYFYARGWYRQAPGKERELGAAITGGGTTSYADSVKGRFTISRDNAKNTVYLQMNSLKPEDTAVYYCNLLFADKSDYWGQGTQVTVSS | low polyreactivity |
| QVQLVESGGGLVQAGGSLRLSCAASGYTFYINATGWYRQAPGKERELVAVITWSSGSTYYADSVKGRFTISRDNAKNTVYLQMNSLKPEDTAVYYCAADVTYEDGAWTIQYDYWGQGTQVTVSS | high polyreactivity |
| QVQLVESGGGLVQAGGSLRLSCAASGYTFYSNAMGWYRQAPGKETELVASIRSRGRSTYYADSVKGRFTISRDNAKNTVYLQMNSLKPEDTAVYYCAALPNKPAVYAYDYWGQGTQVTVSS | low polyreactivity |
| QVQLVESGGGLVQAGGSLRLSCAASGYTFYSYAMGWYRQAPGKERELFAAITESGARTYYADSVKGRFTISRDNAKNTVYLQMNSLKPEVTAVYYCAADYAWPLRVTGDYWGQGTQVTVSS | low polyreactivity |
| QVQLVESGGGLVQAGGSLRLSCAASGYTFYSYAMGWYRQEPGKERELVAAIRTGGGTIYADSVKGRFTISRDNAKNTVYLQMNSLKPEDTAVYYCAAESGYPVYTYVSSGDYWGQGTQVTVSS | low polyreactivity |
| QVQLVESGGGLVQAGGSLRLSCAASGYTIGNNAMGWYRQAPGKERELVARIRTNGGTTYYADSVKGRFTISRDYAKNTVYLQMISLKPEDTAVYYCIAYRGYEYDYWGQGTQVTVSS | low polyreactivity |
| QVQLVESGGGLVQAGGSLRLSCAASGYTLTINVMGWYRQAPGKERELVAAITSSGASTNYADSVKGRFTISRDNAKNTVYLQMNSLKPEDTAVYYCNVVNEHQSDFVVPFDYNHWGQGTQVTVSS | low polyreactivity |
| QVQLVESGGGLVQAGGSLRLSCAASGYTSKTYAMGWYRQAPGKERELVAAINWGSGSTYYADSVKGRFTISRDNAKNTVYFQMYSLKPEDTAVYYCAALVYGHRRLVGNLSRGYWGQGTQVTVSS | high polyreactivity |
| QVQLVESGGGLVQAGGSLRLSCAASGYTSSLNAMGWYRQAPGKERELVARITTDGTSTYYADSVKGRFTISRDNANNTVYLQMNSLKPEDTAVYYCAAEYSYVQFGFGYWGQGTQVTVSS | low polyreactivity |
| QVQLVESGGGLVQAGGSLRLSCAASGYTVWGYAMGWYRQAPGKERELVADITISGGSTYYADSVKGRFTISRDNAKNTVYLQMNSLKPDDSAVYYCAASRAFSWWLSYDYWGQGTQVTVSS | high polyreactivity |
| QVQLVESGGGLVQAGGSLRLSCAASGYTYGTYDMRWYRQAPGKERELVAAFSIGGSTNYADSVKGRFTISRDNAKNTVYLQMNSLKPEDTAVYYCAAEVNVGTLLLSVIVEDGDYWGQGTQVTVSS | low polyreactivity |
| QVQLVESGGGLVQAGGSLRLSCAASGYTYPQNAMGWYIKAPGKERDLFAAISRSGGSTNYADSVKGRNTISRDNAKNTVYLQMNILKPEDTAVYYCARYNYTRQTRVEYGYWGQCTQVTVSS | high polyreactivity |
| QVQLVESGGGLVQAGGSLRLSCAASGYYAMGWYRQAPGKERELVAAITWSGGTTYYADSVKGRFTISRDNAKNTVYLQMNSLKPEDTAVYYCNADFVRYTRHKKYYYWGQGTQVTVSS | low polyreactivity |

| Sequence | polyreactivity (PSR sort gate) |
| --- | --- |
| QVQLVESGGGLVQAGGSLRLSCAASLIFANYAMGWYRQAPGKERELVAAISSVGRTYYADSVKGRFTISRDNAKNTVYLQMNSLKPEDTAVYYCAAESWFKYDYWGQGTQVTVSS | low polyreactivity |
| QVQLVESGGGLVQAGGSLRLSCAASRFIFWSYAMGWYIQAPGTEREMVAAIDMTGGSTYYADYVKGRFTISRDNAKNTVYLQMNSLKPEDTAVYYCNADGDTYAFTNSDSGFDYWGQGTQVTVSS | low polyreactivity |
| QVQLVESGGGLVQAGGSLRLSCAASRFIFWSYAMGWYRQAPGKERELVAAISWRGGSTYYADSVKGRFTISRDNAKNTVYLQMNSLKPEDTAVYYCAAESYNGYDYWGQGTQVTVSS | high polyreactivity |
| QVQLVESGGGLVQAGGSLRLSCAASRFLFWSYAMGWYRQAPGKERELVAAISWRGGSTYYADSVKGRFSISRDTAKNTVYLQMNSLKPEDTAVYYCAAERYNGYDYWGQGTQVTVSS | high polyreactivity |
| QVQLVESGGGLVQAGGSLRLSCAASRIFRGYAMGWYRQAPGKERELVAAIRRGGSTNYADSVKGRFTIARDNAKNTVYLQMNSLKPEDTAVYYCNAYLYFPRYDYWGQGTQVTVSS | high polyreactivity |
| QVQLVESGGGLVQAGGSLRLSCAASRIIFTHNAMGWYRQAPGKERELVAAISWSGGSTYYADSVNGRFTISRDNAKNTVYIEMNSLKPEDTAVYYCAAPYFTYGQDDDDYWGQGTQVTVSS | low polyreactivity |
| QVQLVESGGGLVQAGGSLRLSCAASRRIFWSNAMGWYRQEPGKERELVAAISRRGGRTYYADSVKGRFTISLDNAKNSVYLQMNSLKPEDTAVYYCAADGTADYDYWGQGTQVTVSS | high polyreactivity |
| QVQLVESGGGLVQAGGSLRLSCAASRRTSRYYAMGWYRQAPGKETEFVAAINFSGGRTYYADSVKGRFTISRDNAKNSVYLQMNSLKPEDTAVYYCATQDYRYRYSRFGYWGQGTLVTVSS | high polyreactivity |
| QVQLVESGGGLVQAGGSLRLSCAASRSIFSIYAMGWYRQAPGKERELVAAITWGGGSTYYADSVKGRFTISRDNAKNTVYLQMNSLKPEDTALYYCAADSLTWYGTYYYWGQGTQVTVSS | high polyreactivity |
| QVQLVESGGGLVQAGGSLRLSCAASVFIFGLYAMGWYRQAPGKERELVAAISRSGGSTYYADSVKGRFTISRDNEKNTVYLQMNSLKPEDTAVYYCAKRASPRQAGPIYDSWGQGTQVTVSS | high polyreactivity |
| QVQLVESGGGLVQAGGSLRLSCAASVFTVYGMGWYRQAPGKERELVAAISTGGNTYYADSVKGRFTISRDNAKNTVYLQMNSLKPEDTAVYYCNRRYRYYGLWYGYWGQGTQVTVSS | high polyreactivity |
| QVQLVESGGGLVQAGGSLRLSCAASVGTFSPNTMGWYRQAPGKERELVAAISSSGSTSYADSVKGRFTISRDNAKNTVYLQMNSLKPEDTAGYFCNADDTISYYASGFDNYDYWGQGTQVTVSS | low polyreactivity |
| QVQLVESGGGLVQAGGSLRLSCAASVGWYRQAPGKERELVAAISFSGGSTYYADSVKGRFTISRDNAKNTVYLQMNSLKPEDTAVYYCAAENFWQTKEYDYWGQGTQVTVSS | low polyreactivity |
| QVQLVESGGGLVQAGGSLRLSCAASVLILYYYAMGWYRQAPGKERELVAAISRRDGDTYYADSVKGRFTISRDNAKNTVYLQMNSLKPEDTAVYYCAADRRWSWVFRDDYWGQGTQVTVSS | low polyreactivity |
| QVQLVESGGGLVQAGGSLRLSCAASVRIFDYNAMGWYRQAPGKERELVAAITSGGSTNYADSVKGRFTISRDNAKNTVYLQMNSLKPEDTAVYYCNAEPETTIDYWGQGTQVTVSS | low polyreactivity |
| QVQLVESGGGLVQAGGSLRLSCAASVRIFWPYAMGWYRQAPGKERELVAAITLSGGSTYYADSVKGRFTISRDNAKNTVYLQKNCMKPVETAVYYSAGDHKRTWGGDQGKSHGYWGQGTKVTVSS | low polyreactivity |
